Laboratory results from patent US20220387578A1.
Where a chain is given by its changes, count along the chain named. Numbers in names are those of the source.

B1: rFluA-20 heavy chain mutant Y34A (antibody, V domains shown)
VH: QVQLQESGPGLVKPSETLSLTCSVSGVSVTSDIAYWTWIRQPPGKGLEWIGYIFYNGDTNYNPSLKSRVTMSIDTSKNEFSLRLTSVTAADTAVYFCARGTEDLGYCSSGSCPNHWGQGTLVTVSS
VL: DIQMTQSPSSLSASIGDRVTITCRPSQNIRSFLNWFQHKPGKAPKLLIYAASNLQSGVPSRFSGSGSGTEFTLTIRSLQPEDFATYYCQQSYNTPPTFGQGTKVEIK
B2: rFluA-20 heavy chain mutant E97A (antibody, V domains shown)
VH: B1 VH with A34Y, E102A
VL: B1 VL
B3: rFluA-20 heavy chain mutant T96A (antibody, V domains shown)
VH: B1 VH with A34Y, T101A
VL: B1 VL

Each binder was assayed against H3 HA A/Texas/50/2012, recombinant soluble trimer (influenza A virus).
For B1, the EC50 was 0.16 µg/mL.
Work on B2 yielded an EC50 of 0.18 µg/mL.
Binder B3 has an EC50 of 0.07 µg/mL.

The binders below were run against H1 HA A/Texas/36/1991 (H1N1), recombinant soluble trimer (influenza A virus).
For B1, the EC50 was 0.05 µg/mL.
For B2, the EC50 was 0.05 µg/mL.
For B3, the EC50 was 0.04 µg/mL.

The binders below were run against H1 HA A/Solomon Islands/03/2006 (H1N1), recombinant soluble trimer (influenza A virus).
B1 gave an EC50 of 0.04 µg/mL.
With B2 the EC50 was 0.07 µg/mL.
B3 showed an EC50 of 0.03 µg/mL.
